Source: publication PMC13066552 (Nature Communications, 2026)

Molecular target: the molecule itself
Test: methyl-TROSY NMR spectra compared

B1: Bpa 45-153 (domain or fragment)
chain: AKVMRIGTMIKQLLEEVRAAPLDEASRNRLRDIHATSIRELEDGLAPELREELDRLTLPFNEDAVPSDAELRIAQAQLVGWLEGLFHGIQTALFAQQMAARAQLQQMRQ
- stoichiometry N: 4 subunits
